Test results from article PMC2033796, “Mechanisms of acquired resistance to the quinazoline thymidylate synthase inhibitor ZD1694 (Tomudex) in one mouse and three human cell lines” (British Journal of Cancer, 1995).

Substrate: Nc1nc2c(c(=O)[nH]1)N1CN(c3ccc(C(=O)N[C@@H](CCC(=O)O)C(=O)O)cc3)CC1CN2
Assay: purified protein
Format: biochemical, Homo sapiens
Conditions: co-substrate dUMP; mixed diastereoisomers (6R,S)

B1: TS isolated from human ovarian CH1 cells (CH1 TS) (Homo sapiens) (protein)
chain: PVAGSELPRRPLPPAAQERDAEPRPPHGELQYLGQIQHILRCGVRKDDRTGTGTLSVFGMQARYSLRDEFPLLTTKRVFWKGVLEELLWFIKGSTNAKELSSKGVKIWDANGSRDFLDSLGFSTREEGDLGPVYGFQWRHFGAEYRDMESDYSGQGVDQLQRVIDTIKTNPDDRRIIMCAWNPRDLPLMALPPCHALCQFYVVNSELSCQLYQRSGDMGLGVPFNIASYALLTYMIAHITGLKPGDFIHTLGDAHIYLNHIEPLKIQLQREPRPFPKLRILRKVEKIDDFKAEDFQIEGYNPHPTIKMEMAV
notes: native enzyme partially purified from CH1 ovarian tumour cells (parental line), no tag
  Km: 24 ± 0.8 µM
